Assay results taken from IntAct's records for PubMed 25910212.

B1: Myozenin-2 (Homo sapiens), Q9NPC6 (parent)
chain: MLSHNTMMKQRKQQATAIMKEVHGNDVDGMDLGKKVSIPRDIMLEELSHLSNRGARLFKMRQRRSDKYTFENFQYQSRAQINHSIAMQNGKVDGSNLEGGSQQAPLTPPNTPDPRSPPNPDNIAPGYSGPLKEIPPEKFNTTAVPKYYQSPWEQAISNDPELLEALYPKLFKPEGKAELPDYRSFNRVATPFGGFEKASRMVKFKVPDFELLLLTDPRFMSFVNPLSGRRSFNRTPKGWISENIPIVITTEPTDDTTVPESEDL
B2: U4/U6 small nuclear ribonucleoprotein Prp31 (Homo sapiens), Q8WWY3 (parent)
chain: MSLADELLADLEEAAEEEEGGSYGEEEEEPAIEDVQEETQLDLSGDSVKTIAKLWDSKMFAEIMMKIEEYISKQAKASEVMGPVEAAPEYRVIVDANNLTVEIENELNIIHKFIRDKYSKRFPELESLVPNALDYIRTVKELGNSLDKCKNNENLQQILTNATIMVVSVTASTTQGQQLSEEELERLEEACDMALELNASKHRIYEYVESRMSFIAPNLSIIIGASTAAKIMGVAGGLTNLSKMPACNIMLLGAQRKTLSGFSSTSVLPHTGYIYHSDIVQSLPPDLRRKAARLVAAKCTLAARVDSFHESTEGKVGYELKDEIERKFDKWQEPPPVKQVKPLPAPLDGQRKKRGGRRYRKMKERLGLTEIRKQANRMSFGEIEEDAYQEDLGFSLGHLGKSGSGRVRQTQVNEATKARISKTLQRTLQKQSVVYGGKSTIRDRSSGTASSVAFTPLQGLEIVNPQAAEKKVAEANQKYFSSMAEFLKVKGEKSGLMST
partner: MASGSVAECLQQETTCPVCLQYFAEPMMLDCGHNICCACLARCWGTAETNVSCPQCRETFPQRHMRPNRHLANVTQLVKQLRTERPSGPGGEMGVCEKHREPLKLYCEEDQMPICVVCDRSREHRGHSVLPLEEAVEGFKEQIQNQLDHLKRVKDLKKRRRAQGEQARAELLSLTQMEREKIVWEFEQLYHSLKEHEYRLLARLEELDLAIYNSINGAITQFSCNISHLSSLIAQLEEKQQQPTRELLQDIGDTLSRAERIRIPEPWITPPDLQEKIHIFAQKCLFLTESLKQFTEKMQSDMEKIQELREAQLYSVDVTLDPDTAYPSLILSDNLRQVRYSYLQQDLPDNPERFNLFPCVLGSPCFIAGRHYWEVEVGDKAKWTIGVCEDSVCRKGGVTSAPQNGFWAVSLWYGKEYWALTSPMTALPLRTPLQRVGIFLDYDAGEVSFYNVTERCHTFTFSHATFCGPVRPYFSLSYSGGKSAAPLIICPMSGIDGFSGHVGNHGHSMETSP
B3: DNA mismatch repair protein Mlh1 (Homo sapiens), P40692 (parent)
chain: MSFVAGVIRRLDETVVNRIAAGEVIQRPANAIKEMIENCLDAKSTSIQVIVKEGGLKLIQIQDNGTGIRKEDLDIVCERFTTSKLQSFEDLASISTYGFRGEALASISHVAHVTITTKTADGKCAYRASYSDGKLKAPPKPCAGNQGTQITVEDLFYNIATRRKALKNPSEEYGKILEVVGRYSVHNAGISFSVKKQGETVADVRTLPNASTVDNIRSIFGNAVSRELIEIGCEDKTLAFKMNGYISNANYSVKKCIFLLFINHRLVESTSLRKAIETVYAAYLPKNTHPFLYLSLEISPQNVDVNVHPTKHEVHFLHEESILERVQQHIESKLLGSNSSRMYFTQTLLPGLAGPSGEMVKSTTSLTSSSTSGSSDKVYAHQMVRTDSREQKLDAFLQPLSKPLSSQPQAIVTEDKTDISSGRARQQDEEMLELPAPAEVAAKNQSLEGDTTKGTSEMSEKRGPTSSNPRKRHREDSDVEMVEDDSRKEMTAACTPRRRIINLTSVLSLQEEINEQGHEVLREMLHNHSFVGCVNPQWALAQHQTKLYLLNTTKLSEELFYQILIYDFANFGVLRLSEPAPLFDLAMLALDSPESGWTEEDGPKEGLAEYIVEFLKKKAEMLADYFSLEIDEEGNLIGLPLLIDNYVPPLEGLPIFILRLATEVNWDEEKECFESLSKECAMFYSIRKQYISEESTLSGQQSEVPGSIPNSWKWTVEHIVYKALRSHILPPKHFTEDGNILQLANLPDLYKVFERC
partner: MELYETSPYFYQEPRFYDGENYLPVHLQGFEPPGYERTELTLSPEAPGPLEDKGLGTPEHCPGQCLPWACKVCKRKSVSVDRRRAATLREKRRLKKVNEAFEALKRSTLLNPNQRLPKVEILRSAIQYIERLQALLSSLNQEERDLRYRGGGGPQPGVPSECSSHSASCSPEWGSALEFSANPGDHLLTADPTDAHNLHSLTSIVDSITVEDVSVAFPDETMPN
B4: ATP synthase mitochondrial F1 complex assembly factor 2 (Homo sapiens), Q8N5M1 (parent)
chain: MWRSCLRLRDGGRRLLNRPAGGPSASMSPGPTIPSPARAYAPPTERKRFYQNVSITQGEGGFEINLDHRKLKTPQAKLFTVPSEALAIAVATEWDSQQDTIKYYTMHLTTLCNTSLDNPTQRNKDQLIRAAVKFLDTDTICYRVEEPETLVELQRNEWDPIIEWAEKRYGVEISSSTSIMGPSIPAKTREVLVSHLASYNTWALQGIEFVAAQLKSMVLTLGLIDLRLTVEQAVLLSRLEEEYQIQKWGNIEWAHDYELQELRARTAAGTLFIHLCSESTTVKHKLLKE
partner: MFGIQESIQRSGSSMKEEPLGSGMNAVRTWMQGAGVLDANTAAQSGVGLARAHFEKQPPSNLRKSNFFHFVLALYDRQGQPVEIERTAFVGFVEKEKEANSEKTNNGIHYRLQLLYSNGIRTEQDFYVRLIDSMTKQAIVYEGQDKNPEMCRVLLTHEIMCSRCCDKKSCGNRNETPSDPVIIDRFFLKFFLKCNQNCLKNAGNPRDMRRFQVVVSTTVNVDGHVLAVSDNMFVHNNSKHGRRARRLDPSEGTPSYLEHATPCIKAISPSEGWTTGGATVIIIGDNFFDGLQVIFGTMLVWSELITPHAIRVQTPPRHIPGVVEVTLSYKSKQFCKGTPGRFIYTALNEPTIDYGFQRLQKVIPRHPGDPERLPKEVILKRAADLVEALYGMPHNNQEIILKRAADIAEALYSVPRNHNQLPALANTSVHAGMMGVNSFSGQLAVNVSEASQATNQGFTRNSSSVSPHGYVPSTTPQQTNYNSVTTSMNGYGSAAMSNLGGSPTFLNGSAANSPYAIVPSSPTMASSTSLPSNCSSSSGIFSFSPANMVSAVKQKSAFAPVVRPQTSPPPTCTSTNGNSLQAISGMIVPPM
B5: Chorion-specific transcription factor GCMb (Homo sapiens), O75603 (parent)
chain: MPAAAVQEAVGVCSYGMQLSWDINDPQMPQELALFDQFREWPDGYVRFIYSSDEKKAQRHLSGWAMRNTNNHNGHILKKSCLGVVVCTQACTLPDGSRLQLRPAICDKARLKQQKKACPNCHSALELIPCRGHSGYPVTNFWRLDGNAIFFQAKGVHDHPRPESKSETEARRSAIKRQMASFYQPQKKRIRESEAEENQDSSGHFSNIPPLENPEDFDIVTETSFPIPGQPCPSFPKSDVYKATCDLATFQGDKMPPFQKYSSPRIYLPRPPCSYELANPGYTNSSPYPTLYKDSTSIPNDTDWVHLNTLQCNVNSYSSYERSFDFTNKQHGWKPALGKPSLVERTNHGQFQAMATRPYYNPELPCRYLTTPPPGAPALQTVITTTTKVSYQAYQPPAMKYSDSVREVKSLSSCNYAPEDTGMSVYPEPWGPPVTVTRAASPSGPPPMKIAGDCRAIRPTVAIPHEPVSSRTDEAETWDVCLSGLGSAVSYSDRVGPFFTYNNEDF
partner: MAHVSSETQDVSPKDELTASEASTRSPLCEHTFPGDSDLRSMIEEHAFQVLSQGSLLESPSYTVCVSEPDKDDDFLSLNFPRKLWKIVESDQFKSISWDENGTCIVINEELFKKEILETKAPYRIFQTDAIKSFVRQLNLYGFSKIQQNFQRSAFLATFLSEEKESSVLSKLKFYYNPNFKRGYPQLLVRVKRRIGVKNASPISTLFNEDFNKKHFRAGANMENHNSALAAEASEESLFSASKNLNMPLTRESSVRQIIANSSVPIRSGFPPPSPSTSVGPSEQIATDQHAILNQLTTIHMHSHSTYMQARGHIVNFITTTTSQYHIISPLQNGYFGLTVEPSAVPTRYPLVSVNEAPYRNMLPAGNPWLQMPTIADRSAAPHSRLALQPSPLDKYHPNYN

Variants of: B1
Conditions: with actn2_human ACTN2, P35609
Sequence of actn2_human ACTN2, P35609 (P35609 whole entry): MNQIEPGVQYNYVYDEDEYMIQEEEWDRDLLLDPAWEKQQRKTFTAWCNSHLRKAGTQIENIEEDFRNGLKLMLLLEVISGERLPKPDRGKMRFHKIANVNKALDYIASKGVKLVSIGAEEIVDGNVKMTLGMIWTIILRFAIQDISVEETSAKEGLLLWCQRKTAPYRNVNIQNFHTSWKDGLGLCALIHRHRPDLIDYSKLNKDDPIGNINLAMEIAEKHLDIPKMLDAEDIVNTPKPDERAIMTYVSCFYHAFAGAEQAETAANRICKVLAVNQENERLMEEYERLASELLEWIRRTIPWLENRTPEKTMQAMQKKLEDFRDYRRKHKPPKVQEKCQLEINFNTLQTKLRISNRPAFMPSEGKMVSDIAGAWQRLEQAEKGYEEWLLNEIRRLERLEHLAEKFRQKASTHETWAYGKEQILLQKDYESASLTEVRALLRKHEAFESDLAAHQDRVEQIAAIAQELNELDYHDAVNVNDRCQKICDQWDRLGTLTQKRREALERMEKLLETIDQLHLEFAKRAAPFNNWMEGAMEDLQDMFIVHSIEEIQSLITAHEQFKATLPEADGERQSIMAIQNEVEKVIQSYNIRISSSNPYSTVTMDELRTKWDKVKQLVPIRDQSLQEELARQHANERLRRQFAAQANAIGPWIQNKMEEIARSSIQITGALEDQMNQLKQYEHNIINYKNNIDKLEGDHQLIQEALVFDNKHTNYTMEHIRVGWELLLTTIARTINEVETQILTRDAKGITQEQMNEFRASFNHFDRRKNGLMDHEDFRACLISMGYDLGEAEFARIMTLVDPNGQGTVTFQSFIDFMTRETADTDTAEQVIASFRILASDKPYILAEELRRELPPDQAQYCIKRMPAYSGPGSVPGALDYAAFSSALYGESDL

Variant	effect of a mutation on the interaction
Q10P	with no effect

Variants of: B1
Conditions: with actn1_human ACTN1, P12814
Sequence of actn1_human ACTN1, P12814 (P12814 whole entry): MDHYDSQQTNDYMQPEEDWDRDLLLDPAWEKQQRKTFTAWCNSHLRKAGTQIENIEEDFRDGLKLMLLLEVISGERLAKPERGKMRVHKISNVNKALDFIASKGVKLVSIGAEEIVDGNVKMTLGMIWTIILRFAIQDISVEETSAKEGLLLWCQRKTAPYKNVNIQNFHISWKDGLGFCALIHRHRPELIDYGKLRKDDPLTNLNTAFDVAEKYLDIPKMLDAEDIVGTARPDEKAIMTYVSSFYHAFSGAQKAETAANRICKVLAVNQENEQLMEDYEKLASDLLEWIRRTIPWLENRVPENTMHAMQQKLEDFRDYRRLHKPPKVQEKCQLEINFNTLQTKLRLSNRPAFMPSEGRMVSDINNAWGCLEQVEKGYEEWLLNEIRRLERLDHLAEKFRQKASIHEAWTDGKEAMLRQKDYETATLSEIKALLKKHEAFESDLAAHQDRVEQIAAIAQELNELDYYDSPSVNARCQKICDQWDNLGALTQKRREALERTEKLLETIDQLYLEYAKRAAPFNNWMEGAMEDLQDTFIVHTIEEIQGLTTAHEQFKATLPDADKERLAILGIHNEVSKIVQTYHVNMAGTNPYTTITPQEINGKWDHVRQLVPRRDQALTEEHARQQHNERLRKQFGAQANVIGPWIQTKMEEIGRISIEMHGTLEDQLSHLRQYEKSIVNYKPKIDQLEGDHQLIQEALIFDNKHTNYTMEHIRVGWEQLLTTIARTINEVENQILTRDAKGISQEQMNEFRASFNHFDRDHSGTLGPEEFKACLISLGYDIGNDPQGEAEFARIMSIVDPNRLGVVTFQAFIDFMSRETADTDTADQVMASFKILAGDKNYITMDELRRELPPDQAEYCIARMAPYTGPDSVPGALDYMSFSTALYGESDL

Variant	effect of a mutation on the interaction
Q10P	with no effect

Variants of: B1
Conditions: with actn4_human ACTN4, O43707
Sequence of actn4_human ACTN4, O43707 (O43707 whole entry): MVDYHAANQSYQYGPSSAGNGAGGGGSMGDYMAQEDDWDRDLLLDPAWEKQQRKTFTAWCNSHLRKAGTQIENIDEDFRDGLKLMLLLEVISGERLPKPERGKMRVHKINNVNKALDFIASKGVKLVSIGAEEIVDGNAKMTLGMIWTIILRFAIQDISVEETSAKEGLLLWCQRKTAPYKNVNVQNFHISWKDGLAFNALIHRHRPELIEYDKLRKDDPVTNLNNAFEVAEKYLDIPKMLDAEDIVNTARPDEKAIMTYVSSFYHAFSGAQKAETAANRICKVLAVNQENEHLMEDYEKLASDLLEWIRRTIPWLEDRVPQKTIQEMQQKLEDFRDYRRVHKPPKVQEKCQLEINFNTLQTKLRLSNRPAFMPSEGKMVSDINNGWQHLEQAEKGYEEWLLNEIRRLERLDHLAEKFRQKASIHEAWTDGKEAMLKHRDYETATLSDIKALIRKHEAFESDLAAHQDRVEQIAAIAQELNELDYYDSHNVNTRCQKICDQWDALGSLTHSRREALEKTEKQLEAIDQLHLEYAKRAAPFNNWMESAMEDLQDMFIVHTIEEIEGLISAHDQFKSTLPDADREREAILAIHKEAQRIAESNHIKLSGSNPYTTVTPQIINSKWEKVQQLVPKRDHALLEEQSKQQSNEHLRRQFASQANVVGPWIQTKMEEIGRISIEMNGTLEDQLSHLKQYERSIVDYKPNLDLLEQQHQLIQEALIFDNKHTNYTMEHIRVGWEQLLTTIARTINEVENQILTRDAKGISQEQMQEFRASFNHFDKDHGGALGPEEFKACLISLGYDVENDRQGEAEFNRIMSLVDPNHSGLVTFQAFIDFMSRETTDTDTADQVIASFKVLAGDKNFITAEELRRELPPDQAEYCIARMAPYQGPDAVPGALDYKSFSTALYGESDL

Variant	effect of a mutation on the interaction
Q10P	with no effect

Variants of: B2
Conditions: with tri27_human TRIM27, P14373

Variant	effect of a mutation on the interaction
L107V	with no effect

Variants of: B3
Conditions: with myog_human MYOG

Variant	effect of a mutation on the interaction
G244D	disrupting interaction strength
R472I	with no effect

Variants of: B4
Conditions: with coe1_human EBF1, Q9UH73

Variant	effect of a mutation on the interaction
W94R	disrupting interaction strength

Variants of: B5
Conditions: with hsfy1_human HSFY1, Q96LI6

Variant	effect of a mutation on the interaction
G203S	with no effect
G63S	disrupting interaction strength
R47L	disrupting interaction strength
